{
  "source": "patent US8525237",
  "about": "(University of California, dated 2013)",
  "molecular_target": "transferrin receptor (TfR) (UniProt P02786 89-760, limits assumed)",
  "sequence (P02786 89-760 limits assumed)": "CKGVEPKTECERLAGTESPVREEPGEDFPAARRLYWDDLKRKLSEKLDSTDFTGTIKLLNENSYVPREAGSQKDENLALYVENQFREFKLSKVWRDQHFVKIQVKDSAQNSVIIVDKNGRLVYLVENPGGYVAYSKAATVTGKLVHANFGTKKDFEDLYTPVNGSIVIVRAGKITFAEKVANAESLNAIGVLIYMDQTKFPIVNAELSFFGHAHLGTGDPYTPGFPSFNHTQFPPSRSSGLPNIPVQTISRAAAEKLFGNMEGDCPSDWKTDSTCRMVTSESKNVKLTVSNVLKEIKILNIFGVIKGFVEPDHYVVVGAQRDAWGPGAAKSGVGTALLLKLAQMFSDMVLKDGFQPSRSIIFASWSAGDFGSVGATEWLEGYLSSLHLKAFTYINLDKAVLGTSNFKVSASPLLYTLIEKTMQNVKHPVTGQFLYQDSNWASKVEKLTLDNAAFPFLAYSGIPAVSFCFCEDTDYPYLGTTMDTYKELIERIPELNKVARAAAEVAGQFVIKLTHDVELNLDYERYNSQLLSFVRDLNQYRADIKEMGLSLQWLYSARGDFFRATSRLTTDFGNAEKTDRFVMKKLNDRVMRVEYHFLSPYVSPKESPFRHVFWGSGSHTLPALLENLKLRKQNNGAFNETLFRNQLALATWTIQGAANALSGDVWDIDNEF",
  "test": "phage-based ELISA (assay not given)",
  "note": "Ends that are not written are not given here.",
  "data": [
    {"binder": "SECVEVFQNSCDW (peptide, not shown: large carriers, not fully specified; cysteine pairing not given here, Tested on phage in ELISA and as phage encapsulated in PEDOT nanowires; also called second generation peptide; PSMA-3 viruses)", "note": "[PSMA-3 peptide displayed on M13 phage]", "values": [
      {"measurement": "binding result", "value": "no binding"}
    ]}
  ]
}
